Laboratory results reported in doi:10.1101/2023.12.18.571367.
Where “and” joins values, the source holds several entries; their conditions need not be identical. Identical values can stand only once.

Target: NRC4 (NLR required for cell death 4) with the mutations L9E and D478V
Assay: cryo-EM structure

NRC4 (NLR required for cell death 4) with the mutations L9E and D478V (natural protein)
stoichiometry N: 6 and 12
